The nature of this data set: label from the status in PepcDB records.
Regarding “MSEMAASSAISLLDIKLRRFGVGASNHELRLTKWFKGDQAGAPTRRFTCFADMLAPIRRSEKSEERRFDQKMSAHGAGIKTSSSAVPFASPKSRFLSKQEKFYPRCTPRLTGPQSRDTPPKRDTGIANEKDWGIDLLNENVNEAGTNEDGSSWFRESGHDLGDNGYRCRWSRMGGRSHDGSSEWTETWWEKSDWTGYKELGVEKSGKNSEGDSWWETWQEVLHQDEWSNLARIERSAQKQAKSGTENAGWYEKWWEKYDAKGWTEKGAHKYGRLNEQSWWEKWGEHYDGRGSVLKWTDKWAETELGTKWGDKWEEKFFSGIGSRQGETWHVSPNSDRWSRTWGEEHFGNGKVHKYGKSTTGESWDIVVDEETYYEAEPHYGWADVVGDSTQLLSIQPRERPPGVYPNLEFGPSPPPEPDLPLTNHNDITSVCLAY”, the protein production entry is recorded as “failed”.
With “KKKVLIYGAGSAGLQLANMLRQGKEFHPIAFIDDDRKKHKTTMQGITIYRPKYLERLIKKHCISTVLLAVPSASQVQKKVIIESLAKLHVEVLTIPNLDDLVNGKLSIGQLKEVSIDDLLGRVAVTPQAELMEANIKD” the entry was “not failed”.
For “MINKVLLEGQRITRSPQVKQHACGASFFLVVLLLIGGLLYSTISWMWDEQRLPLSKLVLQGDLHYVSALDVQRVLARLDHIGTFMSQDINVLQESVQSIPWVSHASIRKQWPDTIKVYLTEYQVEALWNANALLDKNGTVFYGDIARVNGEYVKLYGPDGTAPQVLKAWRDYNPKFAQLGLNISSLVLNDRRAWQIILDNGIRLELGKESLEERISRFFLLYKQLGNKAEQVSYIDLRYDTGAAVGWFPEQELTQEKNDD”, the protein production entry was “failed”.
With “MPGYQKTKDVGHFLSVTGTVIRTSLVKVLEFERDYMCNKCKHVFVIKADFEQYYTFCRPSSCPSLESCDSSKFTCLSGLSSSPTRCRDYQEIKIQEQVQRLSVGSIPRSMKVILEDDLVDSCKSGDDLTIYGIVMQRWKPFQQDVRCEVEIVLKANYIQVNNEQSSGIIMDEEVQKEFEDFWEYYKSDPFAGRNVILASLCPQVFGMYLVKLAVAMVLAGGIQRTDATGTRVRGESHLLLVGDPGTGKSQFLKYAAKITPRSVLTTGIGSTSAGIVLNCTVSPGSLVCKLNTRTTILAATNPKGQYDPQESVSVNIALGSPLLSRFDLILVLLDTKNEDWDRIISSFILENKGYPSKSEKLWSMEKMKTYFCLIRNLQPTLSDVGNQVLLRYYQMQRQSDCRNAARTTIRLLESLIRLAEAHARLMFRDTVTLEDAITVVSVMESSMEVHC” the entry was “failed”; with “MKKSNIKTLEQFKDQNYGKKGTAKRDSLEMGYDTFKIGALIQEARIEKGMTQEELAIKCGTTKSYISRIENNIKEVRISTLQKIVELGFGGQLQLSIKFLEHHHHHH”, “not failed”.
For “MNPKVKGIIAILVSAIGFSFMSVFFRLAGDLPVFQKSLARNLVAMFIPLYFIYKYKQPLFGKLSSQPLLISRSTLGLIGVLLNIYAIDHMILSDADTLMKLNPFWTILLSLIFLNEKVRNYQIIAMVIAIFGMLFVVKPEFSSSMIPAIGGLFSGIFAASAYTCVRALSTREAPYTIVFYFSFFSIVVLIPFTIFTFEPMSMMQVIYLIGAGLAAAAGQIGITLAYSYAPAKDISIFTYASIIFTAFFGFILFGESPDFYAILGYVIIIASSYYMFEKARRQPLSIQKEEQKPKT”, the protein production entry is “failed”.
On to “MDRRRFIKGSMAMAAVCGTSGIASLFSQAAFAADSDIADGQTQRFDFSILQSMAHDLAQTAWRGAPRPLPDTLATMTPQAYNSIQYDAEKSLWHNVENRQLDAQFFHMGMGFRRRVRMFSVDPATHLAREIHFRPELFKYNDAGVDTKQLEGQSDLGFAGFRVFKAPELARRDVVSFLGASYFRAVDDTYQYGLSARGLAIDTYTDSKEEFPDFTAFWFDTVKPGATTFTVYALLDSASITGAYKFTIHCEKSQVIMDVENHLYARKDIKQLGIAPMTSMFSCGTNERRMCDTIHPQIHDSDRLSMWRGNGEWICRPLNNPQKLQFNAYTDNNPKGFGLLQLDRDFSHYQDIMGWYNKRPSLWVEPRNKWGKGTIGLMEIPTTGETLDNIVCFWQPEKAVKAGDEFAFQYRLYWSAQPPVHCPLARVMATRTGMGGFPEGWAPGEHYPEKWARRFAVDFVGGDLKAAAPKGIEPVITLSSGEAKQIEILYIEPIDGYRIQFDWYPTSDSTDPVDMRMYLRCQGDAISETWLYQYFPPAPDKRQYVDDRVMS”, for which the protein production result is “failed”.
With “MNLDHLYPFGFRSTLFDRLTPEYEDLKGLSIHQLRESVARDLEDLLNSRVAKMDDVLVNYPLARQSILQFGIIDFVGLSTANPMDREKICQSIEQSIAAHEPRLKQVKVEMLLDGHNMGALCLSIQAYLNIHPLYEPVVFDALLKPTTQQYVISAQT”, the protein production entry was “failed”.
The result for “MNTNVYENTDSETITPLNKRRILPVFLLVGLYAASTAAVMSVLPFYIREMGGSPLIIGIIIATEAFSQFCAAPLIGHLSDRVGRKRILIVTLAIAAISLLLLANAQCILFILLARTLFGISAGNLSAAAAYIADCTHVRNRRQAIGILTGCIGLGGIVGAGVSGWLSRISLGAPIYAAFILVLGAALVAIWGLKDPSTTSRTTDKIASFSARAILKMPVLRVLIIVMLCHFFAYGMYSSQLPVFLSDTFIWNGLPFGPKALSYLLMADGVINIFVQLFLLGWVSQYFSERKLIILIFALLCTGFLTAGIATTIPVLIFAIVCISIADALAKPTYLAALSVHVSPARQGIVIGTAQALIAIADFISPVLGGFVLGYALYGVWIGIAISVAIIGLVTAMIYLSKSSPLIAKPETE” reads “failed”; that for “MAVYLDKEKPVSERVEDLLSKMTLAEKCGQLNQRMYGWEAFSRDGETFHITEKFKEEVTRFEGIGALYGLFRADPWSKMNKDTGVSRKNAGKVANKIQRYVIENTRLGIPVLLAEEVPHGHQALDSESYPVNLARAASFNPELQKQVASAITEEISEKGVHLALASALDILRDPRWGRAEECYGEDPYLAAELTAAITEGFQASGKIAVILKHFAAQGEPIGGHNSGPVSIGVRELREIFLEPMRAGIRSGALGVMAAYNEIDGVPCHANKELLTTILREEMGFSGIVMADGCALDRLLKLNPDPKKAAKMALEAGVDLSLWDEVFPFLEESVEKGILDEKVVDDAVRRVLQVKFQLGLFEQPFVEEEI”, “failed”.
The result for “MKRKISMNKYVVSTILVMISTFFSRIMGFVKIKIFSYYFGANLDADIFNYVFNIPNNLRKILSEGAMTSAFLPEFTHEKNKSHEKAVSFFRTVITFNIISIGLIVLVMIIFAKPIMYFISYYRGENLIFASSVFGYLVLYILLISLSSIFVSVLNSYKIFFIPSFSPIMLSFGIILSIFLFYGRFGIYSAVIGVIFGGFLQFLIPFANCLMIGFAWKPTFYFREKVFLNFLTRWLRMIFGFSISIITQQISFALASTLEIGSVSILSNAVVYYQLPVGIFYISIATVIFPKMAEHAVLGNNIKLNALLVDGIKILLLIFIPVSFLMFIWSDYILNLFLMGGKFSIYDTQKTASVLKCFLLGLLFYSMFGFFQKYYFSIRDAKTPFYLSVLFSILDIAISVFGINYYGLNALALAQSISFMICVIVFYFIILKRGVKIDLIEILFVLLKSIITLFPLYAIYFFFEKFQWDVGFSFKNLYFLMAAGIVSIFVLFICYSVLGINKLFRYIRRDAL” reads “failed”.
The result for “MLYHKLGYVQSAQQTLREVMTIWQAWFKALKAYRKNPARFTGRPRMPRYLHKSQRHTFYVTNQNAQIVRKDEQDKGYLVIKKLGIKIKLASADIKKIGRVAFKPVANGYKVIVPYKTKQKIKYLPDNGKYLGIDPGIDNAFACVSNTGARPLLINGRGIKSVNQYYNKKRSELKRLQAKYHQLEKLISTKQGLKPVYQETKAMKRITAWRNDKIRQFAHKASKRIVDYALSCDANTIVIGKNKSWKRSFEMGKRNNQNFIGIPHQVMIDMIKYKANLAGITVIQTNESYTSQISALDHEQPCWNNGNKSRKKQRKSPVNRRIKRGLFKADNGTLINADINGALQIIKKVFPNFSLDDGIVGAVLRPFKWSPTI” reads “failed”; that for “MNESPKEGAGGAPDYDVWEAEVKSSRGLPLVWLIPLVALGIGIWLAYRTLSEEGPTITLLFKEAPGLEAGKSKIKFKDVEIGTVESVVLNEDLTGVVVTAKMEKHVATHLGENTAFWVVKPELGLGGVSGLDTLMAGNYIAVEFGGGKVVRRFVGLERPPRIKADTPGRSFFLSADNAGPLKYGTPVYFRDIEVGQVVNVGLAEDNRSVQVEIFIDAPYHRLVHNSTRFWQVSGIDLSLSAQGVNLKVGSIMSLLQGGITFETPTLNDPKVQSSEPNTRFRLHKDFASIAEGTYTLRQPYLLFFDDSVRGLNVGAPVELKGIRVGTVTELKLALDFGAHKIRIPVVIEIDPERLIPYGAEEIIERAKKEYKAAMEAGRRPFMEKLVERGLRARLRTGNLLTGQLYVDLDFYPESPPKSLDYSGQYPELPTLPSVADELQRNVTEIIANLKKIPLDKIGQELLGTVQGSNRLLNSPELKGAVGSLNLALKDLRHLAQTADREMVTLTSAAEKSLSSTARVLEQLEPGSAMAVDISNALEELAASARSIRALTDYLERHPEALLHGKGGSGGKP”, “failed”; that for “MPVAATNSETAMQQVLDNLGSLPSATGAAELDLIFLRGIMESPIVRSLAKAHERLEETKLEAVRDNNLELVQEILRDLAQLAEQSSTAAELAHILQEPHFQSLLETHDSVASKTYETPPPSPGLDPTFSNQPVPPDAVRMVGIRKTAGEHLGVTFRVEGGELVIARILHGGMVAQQGLLHVGDIIKEVNGQPVGSDPRALQELLRNASGSVILKILPSYQEPHLPRQVFVKCHFDYDPARDSLIPCKEAGLRFNAGDLLQIVNQDDANWWQACHVEGGSAGLIPSQLLEEKRKAFVKRDLELTPNSGTLCGSLSGKKKKRMMYLTTKNAEFDRHELLIYEEVARMPPFRRKTLVLIGAQGVGRRSLKNKLIMWDPDRYGTTVPYTSRRPKDSEREGQGYSFVSRGEMEADVRAGRYLEHGEYEGNLYGTRIDSIRGVVAAGKVCVLDVNPQAVKVLRTAEFVPYVVFIEAPDFETLRAMNRAALESGISTKQLTEADLRRTVEESSRIQRGYGHYFDLCLVNSNLERTFRELQTAMEKLRTEPQWVPVSWVY”, “not failed”.
As to “MRDIPLLIPILLILFVSLGLARVKTILVVGAFSLFFVYGYLKGENIGTPRRRIEVNDDVFSVMLILSVIIILIQIANLRGIPLLHPHLRTHLNPKLTGLTYFLGLPSSVYLIIRGKKLGFLYPLMVALYAYRTPVLVALIALTLPYLEDMKKGKKAVEIGVIGIFLLFLISYFRGSLSFLTRIQGTTSVLDVIVKRCSVVGFYKGELQLAGVKSYIFGGLGPRTMIARYLGIPGVTITATLIGGMYLDFGLLSSLEMLLLGFYYGIMKKLRSDVGRSFYYSTLSYGIVGVETGILDLPVYLMILVGLLIAWREFDGNLRKDIRRIISWISSSSNNW”, the protein production result was “failed”.
For “MVACRVRLGRHQGARAGRTVCPKHRLRARDAGSRECAALSAGCGRMGRMSEQSLPDGVRPQNADALPEYAERVLDMTELIPPGRVMTYGDVAEYLEEGGPRQVGRVMSLYGGGVPWWRVVRADGVLLAGHELEALDRYREEGTPLKEASRAAEGHLPRLDLKRARWDGEGRPQGHGGRAQGHT”, the protein production result was “failed”.
Consider “MPRYQATLLIELKKGILDPQGRAVEGVLKDLGHPVEEVRVGKVLEIVFPAENLLEAEEKAKAMGALLANPVMEVYALEALKELP”, for which the protein production result was “not failed”.
With “MNRIWLRAIILTASSALLAGCQFGGLNSLPLPGTAGHGEGAYSVTVEMADVATLPQNSPVMVDDVTVGSVAGIVAVQRPDGSFYAAVKLDLDKNVLLPANAVAKVSQTSLLGSLHVELAPPTDRPPTGRLVDGSRITEANTDRFPTTEEVFSALGVVVNKGNVGALEEIIDETHQAVAGRQAQFVNLVPRLAELTAGLNRQVHDIIDALDGLNRVSAILARDKDNLGRALDTLPDAVRVLNQNRDHIVDAFAALKRLTMVTSHVLAETKVDFGEDLKDLYSIVKALNDDRKDFVTSLQLLLTFPFPNFGIKQAVRGDYLNVFTTFDLTLRRIGETFFTTAYFDPNMAHMDEILNPPDFLIGELANLSGQAADPFKIPPGTASGQ”, the protein production result was “failed”.

The values are drawn from a protein production outcome set (Wang et al. 2014).
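Also: failed if final PepcDB status was selected cloned or expressed and not failed if soluble or beyond.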
